Consider four molecules from PMC2241857.

Data set [1] deals with T1, DNA polymerase beta WT (UniProt P06746 1-335). In words: EMSA. On the technique in general: A gel shift assay detects complexes by their altered migration in electrophoresis.
In the next data set the target is DNA polymerase beta L22P (UniProt P06746 1-335, L22P). In words: EMSA.
The target of data set [2] is T1, DNA polymerase beta WT. As to the kind of experiment: NaBH4 trapping of Schiff base complex.

B1: 45AGR (recessed) (dsDNA)
DNA 1: GCCTCGCAGCCGTCCAACCAAC
DNA 2: GGACGGCATTGGATCGAGGTTGAGTTGGTTGGACGGCTGCGAGGC
modifications: template 5' phosphate
In the case of B1, the Kd (usually the equilibrium constant for the complex coming apart) was 84 ± 18 nM with DNA polymerase beta WT [1] and 455 ± 100 nM in the data set with DNA polymerase beta L22P.

B2: 45AG (1-nt gapped, 5'-phosphorylated downstream) (dsDNA)
DNA 1: GCCTCGCAGCCGTCCAACCAAC
DNA 2: CAACCTCGATCCAATGCCGTCC
DNA 3: GGACGGCATTGGATCGAGGTTGAGTTGGTTGGACGGCTGCGAGGC
modifications: 5' phosphate on downstream oligo (S2) and template
On to B2, for which the Kd in the data set with DNA polymerase beta WT [1] is 12 ± 2 nM; with DNA polymerase beta L22P, 229 ± 50 nM.

B3: 45AG1bpDNP (1-nt gapped, non-phosphorylated downstream) (dsDNA)
DNA 1: GCCTCGCAGCCGTCCAACCAAC
DNA 2: CAACCTCGATCCAATGCCGTCC
DNA 3: GGACGGCATTGGATCGAGGTTGAGTTGGTTGGACGGCTGCGAGGC
modifications: no 5' phosphate on downstream oligo (S2); template 5' phosphate
As for B3, the values for the Kd with DNA polymerase beta WT [1] and in the data set with DNA polymerase beta L22P were 20 ± 3 nM and 291 ± 45 nM, respectively.

B4: LPSD incised 5'-dRP substrate (UDG and APE1 treated) (dsDNA)
DNA 1: CTGCAGCTGATGCGC
DNA 2: GTACGGATCCCCGGGTAC
DNA 3: GTACCCGGGGATCCGTACGGCGCATCAGCTGCAG
modifications: uracil (position 16 of S8) removed by UDG; APE1 nick leaves 3'-OH and 5'-dRP on S8[17-34]
As to B4, the binding result with DNA polymerase beta WT [2] is reported as “binds”.
